# Experimental data taken from US20250115664A1.
# Key:
# [1] = molecular target: mouse TIM3 on cells (transfected cells, activated mouse T cells) (mouse) (UniProt Q8VIM0); assay: binding to activated mouse T cells
# [2] = molecular target: mouse TIM3 on cells (transfected cells, activated mouse T cells) (mouse) (UniProt Q8VIM0); assay: binding to activated mouse T cells, against TIM3.18 on human TIM3
# [3] = molecular target: cynomolgus TIM3 on cells (transfected CHO cells, activated cyno T cells, cyno spleen) (cynomolgus); assay: flow cytometry, cyno TIM3-transfected CHO cells (Geo-MFI); fit value of a flat negative-control curve, far beyond the tested range; unit from the axis label
# Sequence of cynomolgus TIM3 on cells (transfected CHO cells, activated cyno T cells, cyno spleen) (cynomolgus) (chain, as listed by the source limits assumed): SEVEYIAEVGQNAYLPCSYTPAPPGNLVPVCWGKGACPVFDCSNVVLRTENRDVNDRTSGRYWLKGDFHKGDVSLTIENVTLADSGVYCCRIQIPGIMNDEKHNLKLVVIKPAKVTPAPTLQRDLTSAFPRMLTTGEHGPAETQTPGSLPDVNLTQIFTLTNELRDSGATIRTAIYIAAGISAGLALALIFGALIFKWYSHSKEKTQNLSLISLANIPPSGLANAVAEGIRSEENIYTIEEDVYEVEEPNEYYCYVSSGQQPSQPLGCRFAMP
# [4] = molecular target: human TIM3 on cells (transfected CHO cells, activated human T cells, Th1 cells, TILs) (human) (UniProt Q8TDQ0); assay: flow cytometry, human TIM3-transfected CHO cells (Geo-MFI); fit value of a flat negative-control curve, far beyond the tested range; unit from the axis label
# Sequence of mouse TIM3 on cells (transfected cells, activated mouse T cells) (mouse) (Q8VIM0 20-281): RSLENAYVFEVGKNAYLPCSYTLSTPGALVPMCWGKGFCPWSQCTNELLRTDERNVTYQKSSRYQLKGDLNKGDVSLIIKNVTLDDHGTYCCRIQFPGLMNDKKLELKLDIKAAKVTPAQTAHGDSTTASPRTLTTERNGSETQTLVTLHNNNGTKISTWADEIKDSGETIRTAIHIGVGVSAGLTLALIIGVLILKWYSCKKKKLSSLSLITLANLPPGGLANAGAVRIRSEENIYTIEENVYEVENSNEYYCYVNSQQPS
substance,measurement,setting,value
RMT3-23 rat anti-mouse TIM3 antibody,EC50,[1],1.7 nM
same,fold weaker EC50 than TIM3.18 on human TIM3,[2],17 fold
hIgG1 (antibody),EC50,[3],75.7 mg/mL
same,EC50,[4],39.7 mg/mL
hIgG2 (antibody),EC50,[3],44.5 mg/mL
same,EC50,[4],42.3 mg/mL
hIgG4 (antibody),EC50,[3],54.1 mg/mL
same,EC50,[4],29.3 mg/mL
